# Experimental data from article doi:10.1101/2022.08.24.505078, “Cyclic AMP competitively inhibits periplasmic phosphatases to coordinate nutritional growth with competence development of Haemophilus influenzae” (bioRxiv, 2022).
# B1: tag-less AphAEc (AphA of E. coli after removal of the N-terminal His6-SUMO tag by Ulp1) (enzyme)
# chain: SPSPLNPGTNVARLAEQAPIHWVSVAQIENSLAGRPPMAVGFDIDDTVLFSSPGFWRGKKTFSPESEDYLKNPVFWEKMNNGWDEFSIPKEVARQLIDMHVRRGDAIFFVTGRSPTKTETVSKTLADNFHIPATNMNPVIFAGDKPGQNTKSQWLQDKNIRIFYGDSDNDITAARDVGARGIRILRASNSTYKPLPQAGAFGEEVIVNSEY
# notes: AphA, non-specific periplasmic acid phosphatase of E. coli; protein of around 25 kDa after cleavage; The linker between SUMO and AphA was removed by mutagenesis; also called cleaved tag-less AphAEc; source: E. coli, purified as His6-SUMO-AphAEc, tag cleaved off with His6-Ulp1, size exclusion chromatography; not shown: His6-SUMO, N-terminal, cleaved
# B2: AphAEc-His6 (periplasmic acid phosphatase AphA of E. coli, signal peptide removed, C-terminal six-histidine tag) (enzyme, UniProt P0AE22 26-237, looked up)
# chain: SSPSPLNPGTNVARLAEQAPIHWVSVAQIENSLAGRPPMAVGFDIDDTVLFSSPGFWRGKKTFSPESEDYLKNPVFWEKMNNGWDEFSIPKEVARQLIDMHVRRGDAIFFVTGRSPTKTETVSKTLADNFHIPATNMNPVIFAGDKPGQNTKSQWLQDKNIRIFYGDSDNDITAARDVGARGIRILRASNSTYKPLPQAGAFGEEVIVNSEY
# notes: AphA, non-specific periplasmic acid phosphatase of E. coli, with the N-terminal signal peptide removed; also called AphA-His6; Ct His6 tagged AphAEc; source: E. coli, purified (Ni-NTA, size exclusion chromatography on Superdex 200 Increase); not shown: His6, C-terminal, kept
# B3: His6-AphAEc (periplasmic acid phosphatase AphA of E. coli, signal peptide removed, N-terminal six-histidine tag) (enzyme, UniProt P0AE22 26-237, looked up)
# chain: B2 chain
# notes: AphA, non-specific periplasmic acid phosphatase of E. coli, with the N-terminal signal peptide removed; also called Nt His6 tagged AphAEc; source: E. coli, purified (Ni-NTA, size exclusion chromatography on Superdex 200 Increase); not shown: His6, N-terminal, kept
# Biological target: the molecule itself
# Test: SEC; purified protein on a Superdex 200 Increase 10/300 GL column; size read against standard proteins
row,Protein,stoichiometry N
1,B1,4
2,B2,2
3,B3,4
